Results on 1 molecule are retold here after US6132711A, “Enzymatic antioxidant of allene oxide for lipid peroxidation in biological systems” (Arizona Board of Regents, priority 1997, dated 2000).

In data set [1] the test system is lipid hydroperoxides. The note with it: Hamberg 1987; cited from earlier work.
Data set [2] deals with linoleic acid conjugated dienes. In words: UV spectrophotometry of superoxide-induced linoleic acid conjugated dienes (A234). The class given is biochemical, guayule. Here is the method: Likewise, the effect of superoxide, produced by the riboflavin/TEMED mixture and light, on lipid peroxidation was determined. […] The mixture was exposed to light and scanned in a UV spectrophotometer at 200 to 300 nm at 10 sec intervals for 2 minutes and again at 5 and 10 min. The effect of AOS on superoxide-inducedlinoleic hydroperoxides was determined using partially pure AOS solubilized from fresh rubber particles using the CHAPS extraction and filtration procedure (Pan et al., J Biol Chem 270: 8487-8494, 1995), which removed all remaining rubber. One μg partially pure AOS was added to oxidized linoleic acid and UV scanned at 2 minute intervals.
This mixture was scanned at A234 followed by addition of riboflavin/TEMED and exposure to 10 min. of light, to produce superoxide. The mixture was rescanned at 10 min intervals.

Data set [3] has as its system tobacco leaf disks. In words: Cell leakage analysis of leaf disks treated with methyl viologen. The class given is cell-based, tobacco cv. Samsun. The settings on record: transgenic AOS tobacco vs untransformed control; 1.2 μM methyl viologen. Here is the method:
Transgenic cv. Samsun tobacco plants that […] AOS and untransformed cv. Samsun plants were gown in a growth chamber maintained at 28° C. and an irradiance of 500 μmole quanta per square meter per sec. at 16 hours per day. Leaf disks of transgenic plants (FIG. 20, disks 3, 6, 14 and 17) were compared with untransformed plants (FIG. 20, disk C) according to the general method set forth in Gupta et al., Proc. Natl. Acad. Sci. USA 90: 1629-1633 (1993).
Leaf disks (2 cm^2) were collected from tobacco plants and placed in petri dishes (15×60 mm) containing 4 ml of a 1.2 μM methyl viologen (MV) solution and vacuum infiltrated for 5 min. MV values are means ±SD (n=4). The samples were incubated at 22° C. for 16 hours in darkness followed by illumination at 500 μM quanta per square meter per sec. for 2 hours. The leaf disks then were incubated for an additional 16 hours in darkness.
The MV solution was collected for conductivity with leaf disks then was autoclaved for 10 min. at 121° C. The conductivity of the autoclaved solution was again measured. The present electrolyte leakage was determined by dividing the value of conductivity of MV solution by the value obtained after autoclaving.

For data set [4] the following is noted: Backhaus et al. 1991; cited from earlier work.
Data set [5] concerns linoleic acid hydro peroxide (LOOH). Briefly: AOS activity assay: degradation of linoleic hydroperoxide (LOOH) followed at 234 nm. The class given is biochemical, guayule. As to the method:
A difference spectra of this extract clearly indicated a characteristic peak at 450 nm (arrow, FIG. 6C). […] This substrate was prepared according to Zimmerman (Zimmerman, Biochem. Biophys. Res. Comm. 23:398-403 (1966); Zimmerman and Feng, Lipids 13:313-316 (1978); Zimmerman and Vick, Plant. Physiol. 46:445-453 (1970)).
(1991) and Zimmerman, op cit. (1966); Zimmerman and Vick, op cit. (1970) and Zimmerman and Feng, op cit. (1978)

A short description of data set [6]: Prenyltransferase activity: incorporation of 14C-isopentenyl pyrophosphate into isoprenoid derivatives, TLC. The class given is biochemical, guayule. The note with it: CHAPS-solubilized, filtered RPP; DMAPP as initiator; 100 μl aliquots. Here is the method:
Biochemical analyses were performed on RPP purified from rubber particles. Three-times-washed rubber particles were prepared by centrifugation according to Cornish and Backhaus, op cit. (1990) from a crude homogenate of guayule stembark. […] Prenyltransferase activity was determined for each purification step by measuring the incorporation of ^14 C-isopentenyl pyrophosphate into isoprenoid derivatives that were analyzed by TLC (benzene/ethyl acetate, 90/10) and autoradiography (Dogbo and Camara, Plant Sci. 49: 103-109 (1987); Kuntz et al., Plant J. 2:25-34 (1992)). Dimethylallyl pyrophosphate (DMAPP) was used as the initiator to measure activity in 100 μl aliquots of proteins from each of the three steps (FIG. 6B, lanes 1-3). […] However, prenyltransferase activity was present in both the crude homogenate and washed preparations containing rubber particles (cf. FIG. 6B, lane 3 with lanes 1 and 2). […]
Washed rubber particles were prepared by centrifugation according to Cornish and Backhaus, op cit.(1990) from a crude homogenate of guayule stembark. […] Prenyltransferase activity was determined for each purification step by measuring the incorporation of ^14 C-isopentenyl pyrophosphate into isoprenoid derivatives according to Dogbo and Camara, op cit. […]

Entries after “also recorded” stand apart in the source; their conditions may differ.

B1: RPP: polypeptide of 53,500 Daltons from guayule rubber particles; non-mono-oxygenase cytochrome P450 heme-binding protein, a species of allene oxide synthase (protein)
chain: MDPSSKPLREIPGSYGIPFFQPIKDRLEYFYGTGGRDEYFRSRMQKYQSTVFRANMPPGPFVSSNPKVIVLLDAKSFPILFDVSKVEKKDLFTGTYMPSTKLTGAYRVLSYLDPSEPRHAQLKNLLFFMLKNSSNRVIPQFETTYYELFEGLEAELAKNGKAAFNDVGEQAAFRFLGRAYFNSNPEETKLGTSAPTLISSWVLFNLAPTLDLGLPWFLQEPLLHTFRLPAFLIKSTYNKLYDYFQSVATPVMEQAEKLGVPKDEAVHNILFAVCFNTFGGVKILFPNTLKWIGVAGENLHTQLAEEIRGAIKSYGDGNVTLEAIEQMPLTKSVVYESLRIEPPVPPQYGKAKSNFTIESHDATFEVKKGEMLFGYQPFATKDPKVFDRPEEFVPDRFVGDGEALLKYVWWSNGPETESPTVENKQCAGKDFVVLITRLFVIELFRRYDSEIELGESPLGAAVTLTFLKRASI
As usually defined, the kcat is the maximal rate divided by the concentration of active sites. Consider B1, for which the kcat in data set [1] is greater than 1000 s⁻¹. Besides, in data set [2] (linoleic acid + riboflavin/TEMED + AOS), the “A234 increase on exposure to light (superoxide) with AOS present” value is recorded as “prevented the increase in A234”. Moreover, the “A234 (conjugated dienes) after AOS added to oxidized linoleic acid” value in data set [2] (linoleic acid oxidized by riboflavin/TEMED in light, 1 μg partially pure AOS, listed as AOS) is given as “A234 decreased; also recorded: time-dependent disappearance of conjugated dienes”. Further, the percent electrolyte leakage entry in data set [3] was “substantially less percent electrolyte leakage”. In addition, the “isoelectric point (pI), experimental value” in data set [4] was 6.2. The “AOS activity (LOOH degradation)” value in data set [5] (UV spectra at 10 sec intervals) is on record as “high AOS activity”. Also, the “time to complete disappearance of LOOH (234 nm peak)” value in data set [5] (enzyme preparation added to cuvette with LOOH, repetitive UV scans at 10 sec intervals) was 10 min. For the same molecule, the prenyltransferase activity entry in data set [6] is given as “complete absence of prenyltransferase activity; also recorded: synthesizes no isoprenes”.
